Source: publication PMC5608764, “Aromatic side-chain conformational switch on the surface of the RNA Recognition Motif enables RNA discrimination”

How the values were obtained:
[1] = biological target: T1, CUG-BP2 RRM3 wild-type (UniProt O95319 416-508, Y508W); assay: NMR 15N-HSQC titration; 25 C; multiple registers; 20 mM K phosphate pH 5.8, 10 mM NaCl, 0.1% beta-mercaptoethanol, 25 C (NMR titrations and ITC); hnRNP A1: 10 mM Na phosphate pH 6.5, 10 mM beta-mercaptoethanol; settings: protein: recombinant
[2] = biological target: T1, CUG-BP2 RRM3 wild-type; assay: ITC; 20 mM K phosphate pH 5.8, 10 mM NaCl, 0.1% beta-mercaptoethanol, 25 C (NMR titrations and ITC); hnRNP A1: 10 mM Na phosphate pH 6.5, 10 mM beta-mercaptoethanol; settings: protein: recombinant
[3] = biological target: T2, CUG-BP2 RRM3 F455A (UniProt O95319 416-508, F455A;Y508W); assay: NMR 15N-HSQC titration; 20 mM K phosphate pH 5.8, 10 mM NaCl, 0.1% beta-mercaptoethanol, 25 C (NMR titrations and ITC); hnRNP A1: 10 mM Na phosphate pH 6.5, 10 mM beta-mercaptoethanol; settings: protein: recombinant; tags: His-tag (pET28a)
[4] = biological target: CUG-BP2 RRM3 F426A (UniProt O95319 416-508, F426A;Y508W); assay: as above; settings: protein: recombinant; tags: His-tag (pET28a)
[5] = biological target: T3, CUG-BP2 RRM3 H429A (UniProt O95319 416-508, H429A;Y508W); assay: as above; settings: protein: recombinant; tags: His-tag (pET28a)
[6] = biological target: T4, CUG-BP2 RRM3 Y428A (UniProt O95319 416-508, Y428A;Y508W); assay: as above; settings: protein: recombinant; tags: His-tag (pET28a)
[7] = biological target: CUG-BP2 RRM3 Q497A (UniProt O95319 416-508, Q497A;Y508W); assay: as above; settings: protein: recombinant; tags: His-tag (pET28a)
[8] = biological target: CUG-BP2 RRM3 K453A (UniProt O95319 416-508, K453A;Y508W); assay: as above; settings: protein: recombinant; tags: His-tag (pET28a)
[9] = biological target: CUG-BP2 RRM3 K499A (UniProt O95319 416-508, K499A;Y508W); assay: as above; settings: protein: recombinant; tags: His-tag (pET28a)
[10] = biological target: CUG-BP2 RRM3 K495A (UniProt O95319 416-508, K495A;Y508W); assay: as above; settings: protein: recombinant; tags: His-tag (pET28a)
[11] = biological target: T1, CUG-BP2 RRM3 wild-type; assay: NMR 15N-HSQC titration; protein mutant series; 20 mM K phosphate pH 5.8, 10 mM NaCl, 0.1% beta-mercaptoethanol, 25 C (NMR titrations and ITC); hnRNP A1: 10 mM Na phosphate pH 6.5, 10 mM beta-mercaptoethanol; settings: protein: recombinant
[12] = biological target: T1, CUG-BP2 RRM3 wild-type; assay: NMR 15N-HSQC titration; 25 C; RNA variant series; 20 mM K phosphate pH 5.8, 10 mM NaCl, 0.1% beta-mercaptoethanol, 25 C (NMR titrations and ITC); hnRNP A1: 10 mM Na phosphate pH 6.5, 10 mM beta-mercaptoethanol; settings: protein: recombinant
[13] = biological target: T2, CUG-BP2 RRM3 F455A; assay: ITC; 25 C; 20 mM K phosphate pH 5.8, 10 mM NaCl, 0.1% beta-mercaptoethanol, 25 C (NMR titrations and ITC); hnRNP A1: 10 mM Na phosphate pH 6.5, 10 mM beta-mercaptoethanol; settings: protein: recombinant; tags: His-tag (pET28a)
[14] = biological target: T3, CUG-BP2 RRM3 H429A; assay: as above; settings: protein: recombinant; tags: His-tag (pET28a)
[15] = biological target: T4, CUG-BP2 RRM3 Y428A; assay: as above; settings: protein: recombinant; tags: His-tag (pET28a)
[16] = biological target: T1, CUG-BP2 RRM3 wild-type; assay: as above; settings: protein: recombinant
[17] = biological target: T1, CUG-BP2 RRM3 wild-type; assay: NMR 15N-HSQC titration; 20 mM K phosphate pH 5.8, 10 mM NaCl, 0.1% beta-mercaptoethanol, 25 C (NMR titrations and ITC); hnRNP A1: 10 mM Na phosphate pH 6.5, 10 mM beta-mercaptoethanol; settings: protein: recombinant

T1 sequence (O95319 416-508 Y508W): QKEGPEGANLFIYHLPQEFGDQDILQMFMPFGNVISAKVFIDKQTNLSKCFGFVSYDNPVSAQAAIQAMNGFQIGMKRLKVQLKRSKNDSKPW
T4 sequence (O95319 416-508 Y428A/Y508W): as the sequence (O95319 416-508 Y508W) above, with Y13A counted along it
T2 sequence (O95319 416-508 F455A/Y508W): as the sequence (O95319 416-508 Y508W) above, with F40A counted along it
T3 sequence (O95319 416-508 H429A/Y508W): as the sequence (O95319 416-508 Y508W) above, with H14A counted along it
Chain of CUG-BP2 RRM3 K499A (O95319 416-508 K499A/Y508W): as the sequence (O95319 416-508 Y508W) above, with K84A counted along it
Chain of CUG-BP2 RRM3 Q497A (O95319 416-508 Q497A/Y508W): as the sequence (O95319 416-508 Y508W) above, with Q82A counted along it
Chain of CUG-BP2 RRM3 F426A (O95319 416-508 F426A/Y508W): as the sequence (O95319 416-508 Y508W) above, with F11A counted along it
Chain of CUG-BP2 RRM3 K453A (O95319 416-508 K453A/Y508W): as the sequence (O95319 416-508 Y508W) above, with K38A counted along it
Chain of CUG-BP2 RRM3 K495A (O95319 416-508 K495A/Y508W): as the sequence (O95319 416-508 Y508W) above, with K80A counted along it

AUUUAAUU (ssRNA) was tested, and the Kd [1] was 31 ± 9 µM.

UUUAA (ssRNA) gave a Kd [2] of 18 µM, a Kd [3] of 41 ± 5 µM and a Kd [4] of 139 ± 10 µM. The Kd [5] was 30 ± 4 µM, the Kd [6] was 27 ± 3 µM and the Kd [7] was 60 ± 10 µM. For the same binder, the Kd [8] was 78 ± 13 µM, the Kd [9] was 91 ± 18 µM and the Kd [10] was 63 ± 6 µM. It also gave a Kd [11] of 62 ± 12 µM and a Kd [12] of 66 ± 14 µM.

With UGUGU (ssRNA) the Kd [13] was 10.4 ± 0.87 µM, the Kd [14] was 0.27 ± 0.05 µM and the Kd [15] was 0.31 ± 0.01 µM. It also gave a Kd [16] of 1.04 ± 0.04 µM.

Binder CUUAA (ssRNA) has a Kd [17] of 54 ± 9 µM.

Work on UCUAA (ssRNA) yielded a Kd [17] of 76 ± 27 µM.

Work on UUCAA (ssRNA) yielded a Kd [17] of 56 ± 12 µM.

UUUCA (ssRNA) showed a Kd [17] of 73 ± 13 µM.

With UUUAC (ssRNA) the Kd [17] was 56 ± 8 µM.
